These results are taken from PMC9436968, “Crosstalk between SUMOylation and ubiquitylation controls DNA end resection by maintaining MRE11 homeostasis on chromatin” (Nature Communications, 2022).

Experiment [1] addresses T1, Flag-4KR (complexed with RAD50) (UniProt P49959 1-708; Q92878 1-1312, K255R | K384R | K416R | K467R).
T1 construct: MRE11 with the four lysine-to-arginine mutations (4KR); RAD50, His-tagged, as in the MRE11/RAD50 complex; also called MRE11 4KR mutant; SUMOylation-deficient MRE11; source: purified, complexed with RAD50; the host is told for the MRE11/RAD50 complex: yeast
The experiment can be described thus: pull-down; purified proteins incubated in T50 buffer (25 mM Tris-HCl pH 7.5, 10% glycerol, 0.5 mM EDTA, 50 mM KCl, 1 mM DTT, 0.01% Igepal) on ice for 2 h, pulled down by anti-Flag M2 beads; supernatant and eluate immunoblotted. The note with it: both partners purified.

The target in experiment [2] is T2, Flag-WT-MRE11 (complexed with RAD50) (UniProt P49959 1-708; Q92878 1-1312).
T2 construct: MRE11, Flag-tagged, in the pESC-URA vector; RAD50, His-tagged, in the pESC-URA vector; The results call it Flag-MRE11; also called MRE11/RAD50 complex; Flag-MRE11; source: protease-deficient yeast strain, co-expressed, purified (Ni-NTA, anti-Flag M2 beads)
Described as above. The following applies: both partners purified.

T1 sequence (P49959 whole entry K255R/K384R/K416R/K467R, chain 1 of 2): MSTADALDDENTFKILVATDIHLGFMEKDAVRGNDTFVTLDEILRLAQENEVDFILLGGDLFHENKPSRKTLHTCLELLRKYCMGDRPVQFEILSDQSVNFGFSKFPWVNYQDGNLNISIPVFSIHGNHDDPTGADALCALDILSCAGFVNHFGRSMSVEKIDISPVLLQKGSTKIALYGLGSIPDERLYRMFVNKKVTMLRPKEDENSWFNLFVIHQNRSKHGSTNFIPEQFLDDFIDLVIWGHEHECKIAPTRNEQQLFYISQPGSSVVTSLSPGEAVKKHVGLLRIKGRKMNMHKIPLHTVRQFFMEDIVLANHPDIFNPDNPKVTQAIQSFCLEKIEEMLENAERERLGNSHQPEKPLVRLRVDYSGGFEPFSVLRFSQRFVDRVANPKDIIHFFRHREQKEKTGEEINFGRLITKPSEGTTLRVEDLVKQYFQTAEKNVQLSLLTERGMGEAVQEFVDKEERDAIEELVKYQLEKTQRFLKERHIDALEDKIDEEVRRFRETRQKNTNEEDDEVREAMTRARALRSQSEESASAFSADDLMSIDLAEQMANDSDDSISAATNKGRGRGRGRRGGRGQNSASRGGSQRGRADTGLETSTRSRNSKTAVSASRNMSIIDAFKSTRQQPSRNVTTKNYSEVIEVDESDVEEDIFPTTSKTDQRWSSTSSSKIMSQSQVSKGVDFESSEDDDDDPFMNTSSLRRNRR
T1 sequence (Q92878 whole entry, chain 2 of 2): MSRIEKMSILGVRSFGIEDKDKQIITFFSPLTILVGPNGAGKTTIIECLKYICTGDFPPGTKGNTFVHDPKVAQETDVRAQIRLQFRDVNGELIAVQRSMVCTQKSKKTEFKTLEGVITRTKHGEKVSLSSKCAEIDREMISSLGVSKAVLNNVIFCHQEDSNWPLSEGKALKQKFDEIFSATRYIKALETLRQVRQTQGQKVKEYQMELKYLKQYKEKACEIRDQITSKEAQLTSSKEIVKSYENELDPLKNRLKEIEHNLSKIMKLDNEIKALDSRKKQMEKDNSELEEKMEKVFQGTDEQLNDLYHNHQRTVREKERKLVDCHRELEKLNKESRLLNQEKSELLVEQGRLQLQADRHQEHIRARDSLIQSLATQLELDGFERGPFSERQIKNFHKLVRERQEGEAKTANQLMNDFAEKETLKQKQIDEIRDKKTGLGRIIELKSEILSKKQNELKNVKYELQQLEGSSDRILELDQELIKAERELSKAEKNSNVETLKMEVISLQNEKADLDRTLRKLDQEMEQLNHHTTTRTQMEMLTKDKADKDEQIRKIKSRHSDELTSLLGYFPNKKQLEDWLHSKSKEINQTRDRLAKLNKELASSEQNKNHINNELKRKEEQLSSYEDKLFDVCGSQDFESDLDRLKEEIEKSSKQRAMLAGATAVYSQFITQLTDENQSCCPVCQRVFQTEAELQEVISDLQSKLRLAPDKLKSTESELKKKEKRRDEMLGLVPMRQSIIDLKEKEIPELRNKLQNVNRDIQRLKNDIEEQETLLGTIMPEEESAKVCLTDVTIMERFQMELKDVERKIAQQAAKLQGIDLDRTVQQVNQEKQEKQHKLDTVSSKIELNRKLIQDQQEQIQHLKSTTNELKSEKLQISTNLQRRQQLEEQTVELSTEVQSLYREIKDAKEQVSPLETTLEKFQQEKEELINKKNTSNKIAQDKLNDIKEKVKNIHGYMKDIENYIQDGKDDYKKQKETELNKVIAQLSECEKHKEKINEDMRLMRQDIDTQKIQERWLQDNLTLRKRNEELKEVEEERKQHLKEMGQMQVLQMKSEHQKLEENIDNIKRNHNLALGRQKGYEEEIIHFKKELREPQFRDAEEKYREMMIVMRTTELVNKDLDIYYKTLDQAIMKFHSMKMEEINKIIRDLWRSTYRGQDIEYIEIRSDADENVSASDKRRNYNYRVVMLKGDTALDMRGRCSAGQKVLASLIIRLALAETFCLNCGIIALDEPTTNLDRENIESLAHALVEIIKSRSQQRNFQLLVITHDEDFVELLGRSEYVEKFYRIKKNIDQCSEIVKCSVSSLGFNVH
T2 sequence (P49959 whole entry, chain 1 of 2): as the sequence (P49959 whole entry K255R/K384R/K416R/K467R, chain 1 of 2) above, with R255K, R384K, R416K, R467K counted along it
T2 sequence (Q92878 whole entry, chain 2 of 2): as the sequence (Q92878 whole entry, chain 2 of 2) above

B1: MBP-NBS1 (natural protein, UniProt O60934 1-754, looked up)
chain: MWKLLPAAGPAGGEPYRLLTGVEYVVGRKNCAILIENDQSISRNHAVLTANFSVTNLSQTDEIPVLTLKDNSKYGTFVNEEKMQNGFSRTLKSGDGITFGVFGSKFRIEYEPLVACSSCLDVSGKTALNQAILQLGGFTVNNWTEECTHLVMVSVKVTIKTICALICGRPIVKPEYFTEFLKAVESKKQPPQIESFYPPLDEPSIGSKNVDLSGRQERKQIFKGKTFIFLNAKQHKKLSSAVVFGGGEARLITEENEEEHNFFLAPGTCVVDTGITNSQTLIPDCQKKWIQSIMDMLQRQGLRPIPEAEIGLAVIFMTTKNYCDPQGHPSTGLKTTTPGPSLSQGVSVDEKLMPSAPVNTTTYVADTESEQADTWDLSERPKEIKVSKMEQKFRMLSQDAPTVKESCKTSSNNNSMVSNTLAKMRIPNYQLSPTKLPSINKSKDRASQQQQTNSIRNYFQPSTKKRERDEENQEMSSCKSARIETSCSLLEQTQPATPSLWKNKEQHLSENEPVDTNSDNNLFTDTDLKSIVKNSASKSHAAEKLRSNKKREMDDVAIEDEVLEQLFKDTKPELEIDVKVQKQEEDVNVRKRPRMDIETNDTFSDEAVPESSKISQENEIGKKRELKEDSLWSAKEISNNDKLQDDSEMLPKKLLLTEFRSLVIKNSTSRNPSGINDDYGQLKNFKKFKKVTYPGAGKLPHIIGGSDLIAHHARKNTELEEWLRQEMEVQNQHAKEESLADDLFRYNPYLKRRR
notes: NBS1, MBP- and His-tagged, in the pFastBac vector; also called MBP- and His-tagged NBS1; source: High Five cells (baculovirus), purified (amylose beads, Ni-NTA)
B1: the binding result in experiment [1] and in experiment [2] was “binds” each time.
